# B1: CA185_01979: rat-derived conformation-selective antibody to compound-bound TNFα; LCVR SEQ ID NO: 22, HCVR SEQ ID NO: 23 (antibody, V domains shown)
# VH: EVHLVESGPGLVKPSQSLSLTCSVTGYSITNSYWDWIRKFPGNKMEWMGYINYSGSTGYNPSLKSRISISRDTSNNQFFLQLNSITTEDTATYYCARGTYGYNAYHFDYWGRGVMVTVSS
# VL: DIQMTQSPASLSASLEEIVTITCQASQDIGNWLSWYQQKPGKSPHLLIYGTTSLADGVPSRFSGSRSGTQYSLKISGLQVADIGIYVCLQAYSTPFTFGSGTKLEIK
# modifications: HCVR of 1979; DIQMTQSPASLSASLEEIVTITCQASQDIGNWLSWYQQKPGKSPHLLIYGTTSLADGVPSRFSGS RSGTQYSLKISGLQVADIGIYVCLQAYSTPFTFGSGTKLEIK
# Tests used:
# Mouse TNFα = target: T1, Mouse TNFα (Mus musculus, UniProt P06804); assay: BIAcore surface plasmon resonance, captured IgG, mouse TNFα +/− test compound; type: binding
# T1 construct: made in house
# T1 sequence (P06804 80-235 limits assumed): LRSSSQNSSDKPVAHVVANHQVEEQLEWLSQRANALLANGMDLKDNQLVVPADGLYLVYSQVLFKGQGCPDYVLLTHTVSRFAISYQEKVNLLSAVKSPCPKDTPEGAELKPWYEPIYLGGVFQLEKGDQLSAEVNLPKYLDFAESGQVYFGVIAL
# Procedure: (§1) Surface plasmon resonance was performed at 25° C. using a BIAcore T200 (GE Healthcare). Anti-Mouse Fc (Jackson 115-006-071) was immobilised on a […] Sensor Chip (GE Healthcare) via amine coupling chemistry to a capture level of 6000 response units. HBS-EP buffer (10 mM HEPES pH 7.4, 0.15 M NaCl, 3 mM EDTA, 0.05% (v/v) surfactant P20—GE Healthcare)+1% DMSO was used as the running buffer.
# (§2) The surface was regenerated at a flow-rate of […] by a 60 s injection of 40 mM HCl×2 and a 30 s 5 mM NaOH. Double referenced background subtracted binding curves were analysed using the T200 Evaluation software (version 1.0) following standard procedures. Kinetic parameters were determined from the fitting algorithm.
# [1] = target: human TNFα complexed with compound (1) (Homo sapiens, UniProt P01375); assay: Size exclusion chromatography (HPLC) of mouse Fab with TNFα-compound complex; type: binding; settings: Fab at 0.5×-2× molar excess
# membrane TNFα = assay: FACS assay with engineered NS0 cell line overexpressing membrane TNFα; type: cell-based; settings: Fab fragments; NS0 cells incubated with compound (1) or DMSO control
# Procedure: An engineered NS0 cell line, which overexpresses membrane TNFα, due to knock-out of the TACE cleavage site was incubated with 0.001-10 μM compound (1) or 0.1% DMSO for 1 h at 37° C. Cells were washed, fixed and stained with antibody Fab fragments at 0.01 or 0.1 μg/ml for 1 hour on ice. (Secondary antibody was anti-mouse Fab-DyeLight488 from Jackson ImmunoResearch).
# There is no staining with the DMSO controls.
# Human TNFα [2] = target: T2, Human TNFα (Homo sapiens, UniProt P01375); assay: BIAcore surface plasmon resonance, captured IgG, human TNFα +/− test compound; type: binding; parameters: Soluble form of human TNFα; made in house
# Procedure: as §1, §2
# Target sequence in this assay (P01375 with tags, fused parts or gaps): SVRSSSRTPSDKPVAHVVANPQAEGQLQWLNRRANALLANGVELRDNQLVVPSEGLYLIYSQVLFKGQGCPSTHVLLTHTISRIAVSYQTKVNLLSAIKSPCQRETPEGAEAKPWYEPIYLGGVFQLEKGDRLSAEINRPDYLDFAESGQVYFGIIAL
# Human TNFα [3] = target: T2, Human TNFα; assay: FACS assay with HEK Jumpin cells overexpressing TNF-RI, receptor-bound TNFα; type: cell-based; parameters: host or cells: HEK Jumpin cells (carry the TNF-RI; settings: antibody at 1 and 10 μg/ml; TNFα pre-incubated with compound (1) or DMSO control
# Procedure: HEK cells were trypsinised and incubated for 2 h in medium to allow recovery of digested TNFRI levels.
# Target sequence in this assay (P01375 77-233 limits assumed): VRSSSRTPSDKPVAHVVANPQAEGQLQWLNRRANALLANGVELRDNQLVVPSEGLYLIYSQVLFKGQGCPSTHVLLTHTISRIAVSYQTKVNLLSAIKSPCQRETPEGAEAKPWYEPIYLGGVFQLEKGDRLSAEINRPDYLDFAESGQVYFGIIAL
# Target sequence in this assay (P19438 22-455 partner limits assumed): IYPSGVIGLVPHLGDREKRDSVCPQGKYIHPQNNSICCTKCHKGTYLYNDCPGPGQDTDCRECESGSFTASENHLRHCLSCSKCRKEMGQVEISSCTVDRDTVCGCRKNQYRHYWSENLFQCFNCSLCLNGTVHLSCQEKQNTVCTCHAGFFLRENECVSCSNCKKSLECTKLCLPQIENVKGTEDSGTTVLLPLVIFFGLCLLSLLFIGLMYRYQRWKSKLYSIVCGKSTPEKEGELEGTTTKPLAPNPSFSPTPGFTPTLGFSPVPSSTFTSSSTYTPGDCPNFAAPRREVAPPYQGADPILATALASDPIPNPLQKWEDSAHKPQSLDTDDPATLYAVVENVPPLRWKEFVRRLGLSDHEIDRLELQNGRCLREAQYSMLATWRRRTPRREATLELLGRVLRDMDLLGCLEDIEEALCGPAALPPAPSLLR
# Chain of human TNFα complexed with compound (1) (P01375 77-233 limits assumed, one chain of several): as the sequence (P01375 77-233 limits assumed) above
# Chain of membrane TNFα (P01375 89-233 limits assumed): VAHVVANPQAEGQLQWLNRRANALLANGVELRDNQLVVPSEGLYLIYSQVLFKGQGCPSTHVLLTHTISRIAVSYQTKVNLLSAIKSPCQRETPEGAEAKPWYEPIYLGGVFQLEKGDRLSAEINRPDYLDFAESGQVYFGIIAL
molecule,measurement,setting,value
B1,Kd,Mouse TNFα; Mouse TNFα + compound (1),0.38 nM
same,ka,Mouse TNFα; Mouse TNFα + compound (1),160000 M⁻¹ s⁻¹
same,kd,Mouse TNFα; Mouse TNFα + compound (1),6.3e-05 s⁻¹
same,ka,Mouse TNFα; Mouse TNFα + compound (2),190000 M⁻¹ s⁻¹
same,kd,Mouse TNFα; Mouse TNFα + compound (2),3.5e-05 s⁻¹
same,Kd,Mouse TNFα; Mouse TNFα apo,27 nM
same,ka,Mouse TNFα; Mouse TNFα apo,72000 M⁻¹ s⁻¹
same,kd,Mouse TNFα; Mouse TNFα apo,0.002 s⁻¹
same,stoichiometry of Fab binding to TNFα trimer,[1],1 Fab: 1 TNFα trimer
same,FACS staining of membrane-bound TNFα,membrane TNFα,only recognise TNF which has been pre-incubated with compound (1)
same,ka,Human TNFα [2]; Human TNFα + compound (1),470000 M⁻¹ s⁻¹
same,kd,Human TNFα [2]; Human TNFα + compound (1),1.6e-05 s⁻¹
same,ka,Human TNFα [2]; Human TNFα + compound (2),570000 M⁻¹ s⁻¹
same,kd,Human TNFα [2]; Human TNFα + compound (2),3.3e-05 s⁻¹
same,ka,Human TNFα [2]; Human TNFα apo,110000 M⁻¹ s⁻¹
same,kd,Human TNFα [2]; Human TNFα apo,0.00071 s⁻¹
same,FACS staining of receptor-bound TNFα,Human TNFα [3],only recognise TNFα which has been pre-incubated with compound (1)
